Test results as given in PMC5419741, “La-related protein 1 (LARP1) binds the mRNA cap, blocking eIF4F assembly on TOP mRNAs”.

How the values were obtained:
LARP1 DM15 [1] = target: T1, LARP1 DM15 (Homo sapiens, UniProt Q6PKG0-3 796-946); test: EMSA; Competition assays: 20 mM Tris pH 8, 150 mM NaCl, 10% glycerol, 1 mM DTT, 0.5 ug BSA, 0.5 ug tRNA, 30 min on ice, native gel; EMSA as in Lahr et al. 2015 with RNA <=200 pM; settings: protein: recombinant
LARP1 DM15 [2] = target: T1, LARP1 DM15; test: crystal structure; Competition assays: 20 mM Tris pH 8, 150 mM NaCl, 10% glycerol, 1 mM DTT, 0.5 ug BSA, 0.5 ug tRNA, 30 min on ice, native gel; EMSA as in Lahr et al. 2015 with RNA <=200 pM; settings: protein: recombinant
eIF4E = eIF4E (Homo sapiens, UniProt P06730 1-217); test: competition; outcompetes DM15 as pre-bound or competitor protein; Competition assays: 20 mM Tris pH 8, 150 mM NaCl, 10% glycerol, 1 mM DTT, 0.5 ug BSA, 0.5 ug tRNA, 30 min on ice, native gel; EMSA as in Lahr et al. 2015 with RNA <=200 pM; settings: protein: recombinant; tags: His6-MBP removed by TEV; label: 32P in cap
Chain of eIF4E (P06730 whole entry): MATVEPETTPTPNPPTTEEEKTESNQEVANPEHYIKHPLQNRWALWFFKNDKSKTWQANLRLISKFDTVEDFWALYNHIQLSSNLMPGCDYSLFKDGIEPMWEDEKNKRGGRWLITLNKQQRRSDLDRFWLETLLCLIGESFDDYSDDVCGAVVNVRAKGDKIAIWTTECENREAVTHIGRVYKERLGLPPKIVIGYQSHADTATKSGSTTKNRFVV

CCUCUUUUCCGUGGCGCCUCGGAGGCGUUCAGCUGCUUCAAG (ssRNA, 5' m7Gppp cap) [m7Gppp-RPS6 42mer (capped TOP)] showed a Kd (LARP1 DM15 [1]; label: 32P in cap) of 21 nM.

CUUUUCCG (ssRNA) [RPS6 8mer]: binds (LARP1 DM15 [2]).

CUCUCUUCCUCGGCGCUGCCUACGGAGGUGGCAGCCAUCUCC (ssRNA, 5' m7Gppp cap) [m7Gppp-RPL32 42mer]: binds (LARP1 DM15 [1]; label: 32P in cap).

GCCUCUUUUCCGUGGCGCCUCGGAGGCGUUCAGCUGCUUCAAG (ssRNA) [G-RPS6 (uncapped non-TOP)] gave a Kd (LARP1 DM15 [1]; label: 5' 32P) of 7500 nM.

GCCUCUUUUCCGUGGCGCCUCGGAGGCGUUCAGCUGCUUCAAG (ssRNA, 5' m7Gppp cap) [m7Gppp-G-RPS6 (capped non-TOP)] was tested, and the Kd (LARP1 DM15 [1]; label: 32P in cap) was 2000 nM and the binding result (eIF4E) was “binds”.
